Source: patent US20160152728A1 (AFFEMED, published 2016)

Experiments:
[1] = biological target: T1, EGFRvIII expressed on cells (CHO^EGFRvIII, F98^EGFRvIII) (UniProt P00533 25-1210); test: cell-based or functional assay
T1 construct: whole, on cells; the vIII deletion must be applied; also called deletion mutant EGFRvIII

[2] = biological target: T2, EGFRvIII-Fc fusion antigen (human, UniProt P00533 25-645); test: SPR Biacore T200, EGFRvIII-Fc captured via anti-hu Fc, scFv analyte, 1:1 model;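 also: Multi-cycle kinetics on a CM5 chip in HBS-P+ running buffer, 180 s scFv association then 540 s dissociation, with blank flow cell signals subtracted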
Description: Anti-hu Fc IgG CM5-chip was prepared by covalent amine coupling by using the Amine-Coupling-Kit (GE), according to the instructions of the manufacturer. The IgG was diluted in the provided immobilization buffer (10 mM sodium acetate, pH 5.0) to a concentration of 25 μg/ml. For the coupling procedure, the predefined method “Amine” of the Biacore T200 control software was applied. A target level between 5000-10000 RU for all 4 flow cells was reached. The surface of the chip was activated with EDC/NHS before injecting the recombinant protein solutions. Free binding sites on the surface were blocked with ethanolamine. 1×HBS-P+ was selected as a running buffer for the entire coupling procedure.
Flowcell 1 and 3 were blanks. 1×HBS-P+ was used as running buffer for the entire procedure. The scFv antibodies were injected at a flow rate of 30 μL/min for 180 sec over all four flowcells. Signals measured in the flowcell 1 without captured antigen were subtracted from signals in the flowcell 2 to correct the binding curves for background binding. Signals measured in the flowcell 3 without captured antigen were subtracted from signals in the flowcell 4 to correct the binding curves for background binding. After 540 sec dissociation time the chip was regenerated as described below.
The Kinetics of scFv antibodies were determined in MCK (Multi Cycle Kinetic) measurements. For estimation of apparent binding affinities the binding curves were evaluated using the “Kinetic” method included in the Biacore evaluation software. By this method the binding curves are globally fitted by the software using the “Langmuir 1:1 interaction model”.

[3] = biological target: T1, EGFRvIII expressed on cells …; test: flow cytometry on F98^EGFRvIII cells; scFv detected with anti-His followed by FITC-conj. goat anti-mouse IgG, mean fluorescence intensity
[4] = biological target: T3, wild type EGFR expressed on cells (CHO^EGFR, F98^EGFR) (human, UniProt P00533 25-1210); test: flow cytometry on F98^EGFR cells; scFv detected with anti-His followed by FITC-conj. goat anti-mouse IgG
T3 construct: whole, on cells; also called native EGFR; EGFRwt
Description: After a second washing cycle, the cells were incubated with 0.1 mL of 15 μg/mL FITC-conjugated goat anti-mouse IgG antibodies under the same conditions as before. As a control, cells were incubated with the anti-His IgG 13/45/31 followed by the FITC-conjugated goat anti-mouse IgG antibodies without scFvs. The cells were then washed again and resuspended in 0.2 mL of FACS buffer containing 2 μg/mL propidium iodide in order to exclude dead cells. The fluorescence of 1×10⁴ living cells was measured using a Beckman-Coulter FC500 MPL flow cytometer using the MXP software (Beckman-Coulter, Krefeld, Germany) or a Millipore Guava EasyCyte flow cytometer using the Incyte software (Merck Millipore, Schwalbach, Germany). Mean fluorescence intensities of the cell samples were calculated using CXP software (Beckman-Coulter, Krefeld, Germany) or Incyte software (Merck Millipore, Schwalbach, Germany).
In case of analysis with Beckman-Coulter FC500 MPL flow cytometer 0.5×10⁶ cells/staining and in case of Millipore Guava EasyCyte flow cytometer only 0.25×10⁶ cells/staining were used.

[5] = biological target: T2, EGFRvIII-Fc fusion antigen; test: ELISA on coated EGFRvIII-Fc; TandAb detected with Protein L-HRP, Abs(450nm) [EGFRvIII binding]

Row | Binder | EC50 in the cytotoxicity assay (CHO^EGFRvIII target cells) [1] [pM] | KD improvement factor vs parental scFv Li3G30 [2] [fold] | Kd [2] [nM] | kOFF improvement factor vs parental scFv Li3G30 [2] [fold] | kON improvement factor vs parental scFv Li3G30 [2] [fold] | koff [2] [s⁻¹] | kon [2] [M⁻¹ s⁻¹] | EC50 (read off the curve) [3] [nM] | binding result [4] | EC50 (read off the curve) [5] [nM]
1 | EGFRvIII/CD3 tandem diabody with parental EGFRvIII binding domain Li3G30 and CD3 domain v64, domain order (i) VL^CD3-VH^EGFRvIII-VL^EGFRvIII-VH^CD3 … (bispecific antibody, part only; not given: CD3 v64 domain and linkers, not shown: small tags and cut ends) chain, part: EVQLVQSGAEVKKPGESLKISCKGSGYSFTSYWIGWVRQMPGKGLEWMGIIYPGDSDTRYSPSFQGQVTISADKSISTAYLQWSSLKASDTAMYYCARLGSSWTNDAFDIWGQGTMVTVSSSYELTQPPSVSVSPGQTARITCSGDALPKQYAYWYQQKPGQAPVLVIYKDSERPSGIPERFSGSSSGTTVTLTISGVQAEDEADYYCQSADSSGTPLIVFGTGTKLTVL | 25 |  |  |  |  |  |  |  |  | 
2 | scFv 469 (scFv, V domains shown, One-chain scFv, His-tagged) VH: EVQLVQSGAEVKKPGESLKISCKGSGYSFNSYWIGWVRQMPGKGLEWMGIIYPGDSDTRYSPSFQGQVTISADKSISTAYLQWSSLKASDTAMYYCARLGSSWTNDAFDIWGQGTLVTVSS VL: SYELTQPPSVSVSPGQTARITCSGDTLPKQYAYWYQQKPGQAPVLVIYKDSERPSGIPERFSGSSSGTTVTLTISGVQAEDEADYYCQSVDVSGTYVVFGGGTKLTVL |  | 10.8 | 0.72 | 2 | 5.2 | 0.0006 | 830000 | 2 |  | 
3 | scFv 479 (scFv, V domains shown, One-chain scFv, His-tagged) VH: EVQLVQSGAEVKKPGESLKISCKGSGYDFSSYWIGWVRQMPGKGLEWMGIIYPGDSDTIYSPSFQGQVTISADKSISTAYLQWSSLKASDTAMYYCARLGSSWTNDAFDIWGQGTLVTVSS VL: SYELTQPPSVSVSPGQTARITCSGAALPEQYAYWYQQKPGQAPVLVIYKDSERPSGIPERFSGSSSGTTVTLTISGVQAEDEADYYCQSVDSSGTFYVFGGGTKLTVL |  | 3.1 | 2.54 | 1.3 | 2.4 | 0.00096 | 380000 |  |  | 
4 | scFv 475 (scFv, V domains shown, One-chain scFv, His-tagged) VH: EVQLVQSGAEVKKPGESLKISCKGSGYSFTSYWIGWVRQMPGKGLEWMGIIYPDDSDTRYSPSFQGQVTISADKSISTAYLQWSSLKASDTAMYYCARLGSSWTNDAFDIWGQGTLVTVSS VL: SYELTQPPSVSVSPGQTARITCSGDALPKQYAYWYQQKPGQAPVLVIYKDTERPSGIPERFSGSSSGTTVTLTISGVQAEDEADYYCQSVDSSGTYVVFGGGTKLTVL |  | 11.1 | 0.7 | 1.5 | 7.5 | 0.0008 | 1.2e+06 | ~2 | no binding (tested: about 3300 nM) | 
5 | scFv 478 (scFv, V domains shown, One-chain scFv, His-tagged) VH: EVQLVQSGAEVKKPGESLKISCKGSGYSFNSYWIGWVRQMPGKGLEWMGIIYPGDEDTRYSPSFQGQVTISADKSISTAYLQWSSLKASDTAMYYCARLGSSWTNDAFDIWGQGTLVTVSS VL: SYELTQPPSVSVSPGQTARITCSGDALPKQYAYWYQQKPGQAPVLVIYKDTERPSGIPERFSGSSSGTTVTLTISGVQAEDEADYYCQSVDPSGTYVVFGGGTKLTVL |  | 49.6 | 0.16 | 5.2 | 8.8 | 0.00023 | 1.4e+06 | ~2 | no binding | 
6 | scFv 476 (scFv, V domains shown, One-chain scFv, His-tagged) VH: EVQLVQSGAEVKKPGESLKISCKGSGYSFTSYWIGWVRQMPGKGLEWMGIIYPGDSDTRYSPSFQGQVTISADKSISTAYLQWSSLKASDTAMYYCARLGSSWTNDAFDIWGQGTLVTVSS VL: SYELTQPPSVSVSPGQTARITCSGDNIPHQYAYWYQQKPGQAPVLVIYKDTERPAGIPERFSGSSSGTTVTLTISGVQAEDEADYYCQSADPTGAYLVFGGGTKLTVL |  | 5 | 1.56 | 1.1 | 4.3 | 0.0011 | 690000 | ~2 | no binding (tested: about 3300 nM) | 
7 | scFv 471 (scFv, V domains shown, One-chain scFv, His-tagged) VH: EVQLVQSGAEVKKPGESLKISCKGSGYSFNSYWIGWVRQMPGKGLEWMGIIYPGDSANRYSPSFQGQVTISADKSISTAYLQWSSLKASDTAMYYCARLGSSWTNDAFDIWGQGTLVTVSS VL: SYELTQPPSVSVSPGQTARITCSGDYLPKQYAYWYQQKPGQAPVLVIYKDTERPSGIPERFSGSSSGTTVTLTISGVQAEDEADYYCQSVDSSHPSVVFGGGTKLTVL |  | 29.9 | 0.26 | 4.1 | 6.9 | 0.00029 | 1.1e+06 | ~2 | no binding (tested: about 3300 nM) | 
8 | scFv 477 (scFv, V domains shown, One-chain scFv, His-tagged) VH: EVQLVQSGAEVKKPGESLKISCKGSGYSFSSYWIGWVRQMPGKGLEWMGIIYPGDSDTRYSPSFQGQVTISADKSISTAYLQWSSLKASDTAMYYCARLGSSWTNDAFDIWGQGTLVTVSS VL: SYELTQPPSVSVSPGQTARITCSGDYLPKQYAYWYQQKPGQAPVLVIYKDTERPSGIPERFSGSSSGTTVTLTISGVQAEDEADYYCQSADASGTYYVFGGGTKLTVL |  | 6 | 1.3 | 0.3 | 18.8 | 0.0038 | 3e+06 | ~2 | no binding (tested: about 3300 nM) | 
9 | scFv 474 (scFv, V domains shown, One-chain scFv, His-tagged) VH: EVQLVQSGAEVKKPGESLKISCKGSGYSFSHYWIGWVRQMPGKGLEWMGITYPGDVDTRYDPSFQGQVTISADKSISTAYLQWSSLKASDTAMYYCARLGSSWTNDAFDIWGQGTLVTVSS VL: SYELTQPPSVSVSPGQTARITCSGDALPKTYAYWYQQKPGQAPVLVIYKDTERPSGIPERFSGSSSGTTVTLTISGVQAEDEADYYCQSADSSGTYLVFGGGTKLTVL |  | 16.3 | 0.48 | 0.8 | 20.6 | 0.0016 | 3.3e+06 | ~2 | no binding (tested: about 3300 nM) | 
10 | scFv 470 (scFv, V domains shown, One-chain scFv, His-tagged) VH: EVQLVQSGAEVKKPGESLKISCKGSGYSFNSYWIGWVRQMPGKGLEWMGIIYPGDSDTRYSPSFQGQVTISADKSISTAYLQWSSLKASDTAMYYCARLGSSWTNDAFDIWGQGTLVTVSS VL: SYELTQPPSVSVSPGQTARITCSGDALDKQYAYWYQQKPGQAPVLVIYKDSERPSGIPERFSGSSSGTTVTLTISGVQAEDEADYYCQSVDSSETYVVFGGGTKLTVL |  | 6.6 | 1.18 | 2.4 | 2.7 | 0.0005 | 430000 | ~2 | no binding (tested: about 3300 nM) | 
11 | scFv 472 (scFv, V domains shown, One-chain scFv, His-tagged) VH: EVQLVQSGAEVKKPGESLKISCKGSGYSFGYYWIGWVRQMPGKGLEWMGIIYPGDSHTRYSPSFQGQVTISADKSISTAYLQWSSLKASDTAMYYCARLGSSWTNDAFDIWGQGTLVTVSS VL: SYELTQPPSVSVSPGQTARITCSGDALPKQYAYWYQQKPGQAPVLVIYKDTERPSGIPERFSGSSSGTTVTLTISGVQAEDEADYYCQSVDSSGTQVVFGGGTKLTVL |  | 96.3 | 0.08 | 4 | 23.8 | 0.0003 | 3.8e+06 | ~1 | no binding (tested: about 3300 nM) | 
12 | scFv 473 (scFv, V domains shown, One-chain scFv, His-tagged) VH: EVQLVQSGAEVKKPGESLKISCKGSGYSFSSYWIGWVRQMPGKGLEWMGIIYPGDSDTRYSPSFQGQVTISADKSISTAYLQWSSLKASDTAMYYCARLGSSWTNDAFDIWGQGTLVTVSS VL: SYELTQPPSVSVSPGQTARITCSGHALPSQYAYWYQQKPGQAPVLVIYKDTERPSGIPERFSGSSSGTTVTLTISGVQAEDEADYYCQSVDSSGTSVIFGGGTKLTVL |  | 11.6 | 0.67 | 1.5 | 7.5 | 0.0008 | 1.2e+06 | ~2 | no binding (tested: about 3300 nM) | 
13 | TandAb EGFRvIII(ABC479)/CD3, domain order (iv) VH^EGFRvIII-VL^CD3-VH^CD3-VL^EGFRvIII (bispecific antibody, part only; not given: CD3 domain and linkers, part only) tandem diabody polypeptide (homodimer), part: QSGAEVKKPGEVQLVESLKISCKGSGYDFSSYWIGWVRQMPGKGLEWMGIIYPGDSDTIYSPSFQGQVTISADKSISTAYLQWSSLKASDTAMYYCARLGSSWTNDAFDIWGQGTLVTVSSSYELTQPPSVSVSPGQTARITCSGAALPEQYAYWYQQKPGQAPVLVIYKDSERPSGIPERFSGSSSGTTVTLTISGVQAEDEADYYCQSVDSSGTFYVFGGGTKLTVL |  |  |  |  |  |  |  |  |  | 0.9
